This is an account of results in patent US11110115B2, “Nucleic acid molecule with anti-inflammatory and anti-coagulant and organ-protective properties” (APTAHEM AB, priority 2017, dated 2021).

Data set [1] relates to IL-10, TNF, IL-6 and IL-1β in serum. Kind of data set: LPS-induced cytokine production model, serum cytokines. The format is in vivo, C57BL/6 mice. The note with it: 2 h after LPS. The procedure: (§1) Female C57BL/6 mice (Taconic Biosciences) were 8 weeks of age at the start of the study. Animals had free access to autoclaved and acidified drinking water. Animals were housed under standard laboratory conditions, air conditioned and filtered with adequate fresh air supply. Animals were kept in a climate controlled environment.
(§2) SEQ ID NO:2 (Biospring) (100 mg) was dissolved in 5 ml saline to form a stock solution of 20 mg/ml. Vehicle is saline solution.
(§3) Dexamethasone stock was prepared by mixing dexamethasone and beta-cyclodextrin at a 4:96 ratio, solubilized in PBS at 2 mg dexamethasone/mL and stored at −20° C. Dosing solution of dexamethasone was prepared by diluting the stock solution to 1 mg/mL with PBS. Dexamethasone administered at 5 to 10 mg/kg, i.p. is used as a positive control for suppression of the immune response.
Two hours after LPS injection mice were bled and serum was isolated and added to EDTA in Gel Clot Activator tubes. At least 100 μl has been analysed. The concentration of IL-10, TNF, IL-6 and IL-1β in serum was measured using eBioscience's Luminex kit, according to manufacturer's protocol. A single analysis was performed on every sample.

The subject of data set [2] is CD11b+CD14+ white blood cells. The data set can be described thus: Flow cytometry of CD11b and CD14 on white blood cells after LPS injection. The format is in vivo, C57BL/6 mice. Particulars: 2 h after LPS. The procedure: as §1, §2, §3
Two hours after LPS injection mice were bled and blood samples were taken. Flow cytometry study was performed on BD FACSCalibur (lasers: 488 nm; 635 nm and UV). In our study we measured the expression of integrin Mac-1 (CD11b/18) on leukocytes by means of flow cytometry. Expression of CD11b on all leukocytes monocytes and granulocytes were assessed by flow cytometry using double fluorescence staining (CD 45/CD11b).
(Flow cytometry measures light scatter and fluorescence of single cells or particles in a stream.)

A short description of data set [3]: Arteriovenous shunt model, thrombus weight. The format is in vivo, Sprague-Dawley male rats. Particulars: SEQ ID NO:2 33.3 mg/kg i.v. 5 min prior; Rivaroxaban 10 mg/kg p.o. 90 min prior; 15 min extracorporeal circulation. The protocol: This study was conducted at Shanghai WuXi AppTec Co., Ltd., and in accordance with WuXi IACUC standard animal procedures along with the IACUC guidelines that are in compliance with the Animal Welfare Act, the Guide for the Care and Use of Laboratory Animals, and the Office of Laboratory Animal Welfare (OLAW). Sprague-Dawley male rats with body weight ranging between 150-200 g (Vital River; Bejing, P.R. China) were fed ad libitum a rodent diet. Animals had free access to autoclaved and acidified drinking water. Animals were housed under standard laboratory conditions, air conditioned and filtered with adequate fresh air supply. Animals were kept in a climate controlled environment. Rivaroxaban (10 mg/kg) has been dissolved in water and stored at 4° C. 20 mg SEQ ID NO:2 (Biospring) was dissolved in 3 ml Saline, vortexed for 5 min., sonicated with a water bath ultrasonic for 1 minute to achieve 6.66 mg/ml SEQ ID NO:2. The animals were assigned to 3 dosing groups according to the body weight (see table 2). […] Extracorporeal circulation was maintained for 15 min, the thrombus weight formed on the thread was calculated by subtracting the average weight of the rough nylon thread. Significance of difference between control and treated groups was analyzed by performing analysis of variance (ANOVA) by EXCEL office software.

Setting [4] is: 25 mg/kg i.v., not statistically significant.
Setting [5] is: 50 mg/kg i.v., not statistically significant.

B1: SEQ ID NO:2: nucleic acid sequence of SEQ ID NO:1 in which each C and U is fluorinated to increase stability in plasma (nucleic acid)
chain: GGGAAUUCGAGCUCGGUACCAACAAUACGACUACACCAUCAAAAGUAUUAUCUUGCAUCGAAGGUUGGCACGUAGCAAGCUCUGCAGUCG
modifications: fluorinated C and U; (6)..(7) uracil is fluorinated; (8)..(8) cytosine is fluorinated; (12)..(12) cytosine is fluorinated; (13)..(13) uracil is fluorinated; (14)..(14) cytosine is fluorinated; (17)..(17) uracil is fluorinated; (19)..(20) cytosine is fluorinated; (23)..(23) cytosine is fluorinated; (26)..(26) uracil is fluorinated; (28)..(28) cytosine is fluorinated; (31)..(31) cytosine is fluorinated; (32)
Turning to B1, the “IL-1β concentration in serum compared to vehicle group” value in data set [1] (5 mg/kg i.v.) is reported as “similar”; in data set [1] (setting [4]), “lower”. Moreover, the “IL-6 concentration in serum compared to vehicle group” value is listed as “similar” in data set [1] (5 mg/kg i.v.), “lower” in data set [1] (setting [4]) and “lower” in data set [1] (setting [5]). Besides, the figures for the “TNF concentration in serum compared to vehicle group” value in data set [1] (5 mg/kg i.v.), in data set [1] (setting [4]) and in data set [1] (setting [5]) were “similar”, “lower” and “lower”, respectively. In addition, the “serum concentration of IL-10, difference to vehicle group” value in data set [1] (25 mg/kg i.v. 5 min before LPS) and in data set [1] (50 mg/kg i.v. 5 min before LPS) was “significant” in each case. Moreover, in data set [1] (50 mg/kg i.v.), the “reduction in IL-1β concentration in serum compared to vehicle group” value is listed as “statistically significant”. Also, the “serum concentration of IL-10 compared to vehicle group” value in data set [1] (SEQ ID NO:2 groups (5, 25, 50 mg/kg i.v.) 5 min before LPS) is “increase”. The “expression of CD11b compared to vehicle group” value in data set [2] (5 mg/kg i.v.) was “similar”; in data set [2] (setting [4]), “lower”. Moreover, the results for the “proportion of CD11b+CD14+ cells in white blood cells compared to vehicle group” value in data set [2] (5 mg/kg i.v.), in data set [2] (25 mg/kg i.v.) and in data set [2] (50 mg/kg i.v.) were “similar”, “significantly lower” and “significantly lower”, respectively. Besides, the “lower expression of CD11b, difference to vehicle group” value in data set [2] (50 mg/kg i.v.) is reported as “statistically significant”. Besides, in data set [3], the “thrombus weight, less than vehicle group” value worked out at 48.1%.
